Assay results from patent US20210213134.
Positions count from the first letter of the chain named.

B1: Azido-C35STRX (C35STRX with azido-PEG linkers on Lys residues, reduced) (protein)
chain: MVKQIESKTAFQEALDAAGDKLVVVDFSATWCGPSKMIKPFFHSLSEKYSNVIFLEVDVDDCQDVASECEVKCMPTFQFFKKGQKVGEFSGANKEKLEATINELV
B2: native human thioredoxin-1 (TRX) (protein)
chain: B1 chain with S35C

Molecular target: insulin (fully disulfide-bonded heterodimeric insulin)

| Protein | activity in the insulin assay as compared to unreacted reduced C35STRX | insulin disulfide bond reduction activity |
| --- | --- | --- |
| B1 | the conjugated material retained about 33% of its activity in the insulin assay as compared to unreacted reduced C35STRX | – |
| B2 | – | GSH is capable of restoring insulin disulfide bond reduction activity to oxidized TRX (FIG. 1) |
